B1: Pre-mRNA-splicing factor SPF27 (Homo sapiens), O75934 (parent)
chain: MAGTGLVAGEVVVDALPYFDQGYEAPGVREAAAALVEEETRRYRPTKNYLSYLTAPDYSAFETDIMRNEFERLAARQPIELLSMKRYELPAPSSGQKNDITAWQECVNNSMAQLEHQAVRIENLELMSQHGCNAWKVYNENLVHMIEHAQKELQKLRKHIQDLNWQRKNMQLTAGSKLREMESNWVSLVSKNYEIERTIVQLENEIYQIKQQHGEANKENIRQDF
partner: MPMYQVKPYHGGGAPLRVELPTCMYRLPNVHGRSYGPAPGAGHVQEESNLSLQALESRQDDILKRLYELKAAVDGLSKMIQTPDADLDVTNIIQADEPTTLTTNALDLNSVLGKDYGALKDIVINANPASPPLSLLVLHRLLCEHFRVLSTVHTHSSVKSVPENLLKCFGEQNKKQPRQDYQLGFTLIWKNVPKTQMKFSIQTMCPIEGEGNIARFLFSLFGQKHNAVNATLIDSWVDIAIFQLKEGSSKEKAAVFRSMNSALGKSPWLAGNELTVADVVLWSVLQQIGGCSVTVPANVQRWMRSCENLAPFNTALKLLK
B2: Dynein light chain Tctex-type 3 (Homo sapiens), P51808 (parent)
chain: MEEYHRHCDEVGFNAEEAHNIVKECVDGVLGGEDYNHNNINQWTASIVEQSLTHLVKLGKAYKYIVTCAVVQKSAYGFHTASSCFWDTTSDGTCTVRWENRTMNCIVNVFAIAIVL
B3: Mothers against decapentaplegic homolog 4 (Homo sapiens), Q13485 (parent)
chain: MDNMSITNTPTSNDACLSIVHSLMCHRQGGESETFAKRAIESLVKKLKEKKDELDSLITAITTNGAHPSKCVTIQRTLDGRLQVAGRKGFPHVIYARLWRWPDLHKNELKHVKYCQYAFDLKCDSVCVNPYHYERVVSPGIDLSGLTLQSNAPSSMMVKDEYVHDFEGQPSLSTEGHSIQTIQHPPSNRASTETYSTPALLAPSESNATSTANFPNIPVASTSQPASILGGSHSEGLLQIASGPQPGQQQNGFTGQPATYHHNSTTTWTGSRTAPYTPNLPHHQNGHLQHHPPMPPHPGHYWPVHNELAFQPPISNHPAPEYWCSIAYFEMDVQVGETFKVPSSCPIVTVDGYVDPSGGDRFCLGQLSNVHRTEAIERARLHIGKGVQLECKGEGDVWVRCLSDHAVFVQSYYLDREAGRAPGDAVHKIYPSAYIKVFDLRQCHRQMQQQAATAQAAAAAQAAAVAGNIPGPGSVGGIAPAISLSAAAGIGVDDLRRLCILRMSFVKGWGPDYPRQSIKETPCWIEIHLHRALQLLDEVLHTMPIADPQPLD
partner: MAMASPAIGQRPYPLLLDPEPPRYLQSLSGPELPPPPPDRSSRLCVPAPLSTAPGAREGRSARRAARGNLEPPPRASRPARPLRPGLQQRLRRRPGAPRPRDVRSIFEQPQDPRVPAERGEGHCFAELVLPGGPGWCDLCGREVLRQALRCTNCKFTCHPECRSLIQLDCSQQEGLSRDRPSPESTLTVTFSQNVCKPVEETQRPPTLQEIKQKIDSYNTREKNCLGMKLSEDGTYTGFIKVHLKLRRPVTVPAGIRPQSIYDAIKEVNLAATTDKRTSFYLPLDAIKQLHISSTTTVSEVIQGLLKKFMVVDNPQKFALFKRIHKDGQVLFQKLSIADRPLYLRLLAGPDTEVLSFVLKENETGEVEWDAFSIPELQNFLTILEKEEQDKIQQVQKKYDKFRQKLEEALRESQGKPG
B4: Tuftelin-interacting protein 11 (Homo sapiens), Q9UBB9 (parent)
chain: MSLSHLYRDGEGRIDDDDDERENFEITDWDLQNEFNPNRQRHWQTKEEATYGVWAERDSDDERPSFGGKRARDYSAPVNFISAGLKKGAAEEAELEDSDDEEKPVKQDDFPKDFGPRKLKTGGNFKPSQKGFAGGTKSFMDFGSWERHTKGIGQKLLQKMGYVPGRGLGKNAQGIINPIEAKQRKGKGAVGAYGSERTTQSMQDFPVVDSEEEAEEEFQKELSQWRKDPSGSKKKPKYSYKTVEELKAKGRISKKLTAPQKELSQVKVIDMTGREQKVYYSYSQISHKHNVPDDGLPLQSQQLPQSGKEAKAPGFALPELEHNLQLLIDLTEQEIIQNDRQLQYERDMVVNLFHELEKMTEVLDHEERVISNLSKVLEMVEECERRMQPDCSNPLTLDECARIFETLQDKYYEEYRMSDRVDLAVAIVYPLMKEYFKEWDPLKDCTYGTEIISKWKSLLENDQLLSHGGQDLSADAFHRLIWEVWMPFVRNIVTQWQPRNCDPMVDFLDSWVHIIPVWILDNILDQLIFPKLQKEVENWNPLTDTVPIHSWIHPWLPLMQARLEPLYSPIRSKLSSALQKWHPSDSSAKLILQPWKDVFTPGSWEAFMVKNIVPKLGMCLGELVINPHQQHMDAFYWVIDWEGMISVSSLVGLLEKHFFPKWLQVLCSWLSNSPNYEEITKWYLGWKSMFSDQVLAHPSVKDKFNEALDIMNRAVSSNVGAYMQPGARENIAYLTHTERRKDFQYEAMQERREAENMAQRGIGVAASSVPMNFKDLIETKAEEHNIVFMPVIGKRHEGKQLYTFGRIVIYIDRGVVFVQGEKTWVPTSLQSLIDMAK
partner: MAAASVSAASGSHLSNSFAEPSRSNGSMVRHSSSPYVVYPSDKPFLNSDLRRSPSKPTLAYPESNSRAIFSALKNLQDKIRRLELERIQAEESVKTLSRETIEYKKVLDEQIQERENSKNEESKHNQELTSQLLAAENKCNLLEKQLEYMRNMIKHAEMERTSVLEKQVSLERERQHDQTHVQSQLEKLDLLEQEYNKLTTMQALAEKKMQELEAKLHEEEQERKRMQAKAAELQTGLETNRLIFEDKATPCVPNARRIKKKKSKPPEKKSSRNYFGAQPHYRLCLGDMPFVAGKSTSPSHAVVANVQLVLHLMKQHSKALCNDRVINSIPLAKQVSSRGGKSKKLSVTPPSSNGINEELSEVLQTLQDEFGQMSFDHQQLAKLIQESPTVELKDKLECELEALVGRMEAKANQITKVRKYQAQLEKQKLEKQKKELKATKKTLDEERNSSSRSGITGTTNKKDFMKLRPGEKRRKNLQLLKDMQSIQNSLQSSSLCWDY
B5: Ras-related protein Rab-4A (Homo sapiens), P20338 (parent)
chain: MSQTAMSETYDFLFKFLVIGNAGTGKSCLLHQFIEKKFKDDSNHTIGVEFGSKIINVGGKYVKLQIWDTAGQERFRSVTRSYYRGAAGALLVYDITSRETYNALTNWLTDARMLASQNIVIILCGNKKDLDADREVTFLEASRFAQENELMFLETSALTGENVEEAFVQCARKILNKIESGELDPERMGSGIQYGDAALRQLRSPRRAQAPNAQECGC
partner: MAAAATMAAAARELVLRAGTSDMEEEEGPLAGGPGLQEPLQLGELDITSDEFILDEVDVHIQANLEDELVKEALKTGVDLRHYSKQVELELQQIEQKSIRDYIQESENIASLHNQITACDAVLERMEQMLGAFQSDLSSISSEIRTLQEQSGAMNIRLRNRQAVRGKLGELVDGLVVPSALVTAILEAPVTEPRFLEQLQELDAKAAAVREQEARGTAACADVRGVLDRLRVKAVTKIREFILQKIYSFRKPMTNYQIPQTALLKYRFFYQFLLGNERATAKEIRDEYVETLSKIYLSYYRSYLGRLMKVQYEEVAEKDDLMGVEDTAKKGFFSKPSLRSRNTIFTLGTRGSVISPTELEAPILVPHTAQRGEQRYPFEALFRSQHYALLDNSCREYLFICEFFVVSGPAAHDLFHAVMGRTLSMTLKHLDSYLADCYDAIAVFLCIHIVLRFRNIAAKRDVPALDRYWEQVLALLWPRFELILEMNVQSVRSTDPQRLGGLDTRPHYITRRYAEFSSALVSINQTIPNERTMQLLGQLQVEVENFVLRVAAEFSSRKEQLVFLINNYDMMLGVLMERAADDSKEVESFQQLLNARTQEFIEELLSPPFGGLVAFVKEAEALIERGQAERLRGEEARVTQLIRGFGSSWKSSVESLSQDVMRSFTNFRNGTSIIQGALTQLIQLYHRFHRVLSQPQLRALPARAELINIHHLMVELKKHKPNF
B6: Alpha-taxilin (Homo sapiens), P40222 (parent)
chain: MKNQDKKNGAAKQSNPKSSPGQPEAGPEGAQERPSQAAPAVEAEGPGSSQAPRKPEGAQARTAQSGALRDVSEELSRQLEDILSTYCVDNNQGGPGEDGAQGEPAEPEDAEKSRTYVARNGEPEPTPVVNGEKEPSKGDPNTEEIRQSDEVGDRDHRRPQEKKKAKGLGKEITLLMQTLNTLSTPEEKLAALCKKYAELLEEHRNSQKQMKLLQKKQSQLVQEKDHLRGEHSKAVLARSKLESLCRELQRHNRSLKEEGVQRAREEEEKRKEVTSHFQVTLNDIQLQMEQHNERNSKLRQENMELAERLKKLIEQYELREEHIDKVFKHKDLQQQLVDAKLQQAQEMLKEAEERHQREKDFLLKEAVESQRMCELMKQQETHLKQQLALYTEKFEEFQNTLSKSSEVFTTFKQEMEKMTKKIKKLEKETTMYRSRWESSNKALLEMAEEKTVRDKELEGLQVKIQRLEKLCRALQTERNDLNKRVQDLSAGGQGSLTDSGPERRPEGPGAQAPSSPRVTEAPCYPGAPSTEASGQTGPQEPTSARA
partner: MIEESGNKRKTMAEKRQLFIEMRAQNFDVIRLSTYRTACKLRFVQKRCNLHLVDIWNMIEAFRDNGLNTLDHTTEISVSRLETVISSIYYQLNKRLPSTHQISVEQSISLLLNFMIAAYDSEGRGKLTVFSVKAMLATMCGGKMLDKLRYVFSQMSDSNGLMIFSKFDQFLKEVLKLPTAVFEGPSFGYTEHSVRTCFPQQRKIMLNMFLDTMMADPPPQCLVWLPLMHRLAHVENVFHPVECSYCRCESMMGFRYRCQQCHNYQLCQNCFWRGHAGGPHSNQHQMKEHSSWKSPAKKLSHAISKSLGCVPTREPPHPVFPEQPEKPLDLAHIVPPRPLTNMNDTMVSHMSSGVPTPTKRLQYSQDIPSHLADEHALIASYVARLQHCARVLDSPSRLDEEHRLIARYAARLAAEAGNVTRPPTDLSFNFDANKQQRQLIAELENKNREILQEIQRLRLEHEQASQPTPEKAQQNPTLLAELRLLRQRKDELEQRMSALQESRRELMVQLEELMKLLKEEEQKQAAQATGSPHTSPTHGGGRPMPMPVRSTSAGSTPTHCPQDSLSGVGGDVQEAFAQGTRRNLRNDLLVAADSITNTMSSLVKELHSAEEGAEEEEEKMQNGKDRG
B7: Baculoviral IAP repeat-containing protein 7 (Homo sapiens), Q96CA5 (parent)
chain: MGPKDSAKCLHRGPQPSHWAAGDGPTQERCGPRSLGSPVLGLDTCRAWDHVDGQILGQLRPLTEEEEEEGAGATLSRGPAFPGMGSEELRLASFYDWPLTAEVPPELLAAAGFFHTGHQDKVRCFFCYGGLQSWKRGDDPWTEHAKWFPSCQFLLRSKGRDFVHSVQETHSQLLGSWDPWEEPEDAAPVAPSVPASGYPELPTPRREVQSESAQEPGGVSPAEAQRAWWVLEPPGARDVEAQLRRLQEERTCKVCLDRAVSIVFVPCGHLVCAECAPGLQLCPICRAPVRSRVRTFLS
partner: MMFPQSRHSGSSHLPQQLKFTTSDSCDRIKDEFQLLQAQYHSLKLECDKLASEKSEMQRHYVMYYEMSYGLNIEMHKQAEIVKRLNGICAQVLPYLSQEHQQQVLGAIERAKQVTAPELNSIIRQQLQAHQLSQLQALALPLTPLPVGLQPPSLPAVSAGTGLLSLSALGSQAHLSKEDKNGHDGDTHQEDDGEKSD

Variants of: B1
Settings: with aimp2_human AIMP2, Q13155

Variant	effect of a mutation on the interaction
N139S	with no effect

Variants of: B2
Settings: with dc1i2_human DYNC1I2, Q13409
Sequence of dc1i2_human DYNC1I2, Q13409 (Q13409 whole entry): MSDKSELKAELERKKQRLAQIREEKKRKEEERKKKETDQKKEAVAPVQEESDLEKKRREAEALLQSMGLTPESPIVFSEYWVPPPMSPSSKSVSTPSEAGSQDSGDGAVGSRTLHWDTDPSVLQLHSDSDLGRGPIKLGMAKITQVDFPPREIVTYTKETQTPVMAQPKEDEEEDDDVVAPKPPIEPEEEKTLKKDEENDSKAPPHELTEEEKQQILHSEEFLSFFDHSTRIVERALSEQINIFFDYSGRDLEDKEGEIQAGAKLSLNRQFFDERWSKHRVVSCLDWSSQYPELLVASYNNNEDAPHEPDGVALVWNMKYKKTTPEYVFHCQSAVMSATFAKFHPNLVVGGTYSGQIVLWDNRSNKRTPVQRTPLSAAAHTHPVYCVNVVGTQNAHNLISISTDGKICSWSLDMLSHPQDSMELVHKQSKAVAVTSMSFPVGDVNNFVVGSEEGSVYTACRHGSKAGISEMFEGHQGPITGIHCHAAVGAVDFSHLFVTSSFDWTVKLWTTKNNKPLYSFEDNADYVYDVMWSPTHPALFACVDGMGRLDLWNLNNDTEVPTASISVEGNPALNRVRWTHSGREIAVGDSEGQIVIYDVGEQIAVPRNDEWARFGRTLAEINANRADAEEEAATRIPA

Variant	effect of a mutation on the interaction
A75T	with no effect

Variants of: B3
Settings: with rasf5_human RASSF5, Q8WWW0

Variant	effect of a mutation on the interaction
C324R	disrupting interaction strength
E330K	with no effect
N13S	with no effect
V350D	disrupting interaction strength

Variants of: B4
Settings: with cep57_human CEP57, Q86XR8

Variant	effect of a mutation on the interaction
S688L	with no effect
R8Q	with no effect

Variants of: B5
Settings: with vps52_human VPS52, Q8N1B4

Variant	effect of a mutation on the interaction
R207H	with no effect

Variants of: B6
Settings: with dtnb_human DTNB

Variant	effect of a mutation on the interaction
R154G	disrupting interaction strength

Variants of: B7
Settings: with tle5_human TLE5, Q08117

Variant	effect of a mutation on the interaction
H164R	with no effect

Variants of: B7
Settings: with tle5_human TLE5, Q08117
Remark: another data set of the same source

Variant	effect of a mutation on the interaction
H164R	with no effect

Source: IntAct's records for PubMed 31515488
